Source: patent US10745461B2, “Pulsed introduction of low-dose RANKL as a therapy for diet-induced atherosclerosis” (Saint Louis University, priority 2015, dated 2020)

Legend:
Type in all cases: in vivo
ovariectomized mice = assay: Kinetics of a single low-dose RANKL treatment followed by serum CTX; conditions: twice 24 hrs apart, 2 weeks post-OVX
Procedure: Food was withdrawn 6 to 10 hours prior to bleeding. Peripheral blood (100 to 200 μL) obtained via sub-mandibular vein, was allowed to clot for 2 hours at room temperature and serum collected by spinning down the cell pellet. Serum C-terminal telopeptide of type 1 collagen (serum CTX) was measured using ELISA according to the manufacturer's instructions (Immunodiagnostic Systems, Plc)
To assess the kinetics of a single treatment, C57BL/6J ovariectomized mice were treated with low-dose RANKL (administered twice 24 hrs apart, 2 weeks post-OVX) and then followed by serum CTX assay. […] In FIG. 11B, to assess whether multiple treatments are effective, sham-operated (Sx) or OVX 12-week old C57BL/6J mice were treated with low-dose RANKL (0.125 mg/kg) once per month or once with the bisphosphonate Zoledronate (ZA; 3 weeks post-OVX). 120 days post-OVX peripheral blood obtained by mandible bleeds was treated to remove RBCs (BD Pharmalyse) then 1 to 3×10^6 cells were plated per well in triplicate (6 mice/group). Media was collected after 36 hours of culturing and cytokine levels quantitated by multiplexed ELISA (Millipore).

[1] = system: aortic plaque development and bone loss; assay: Ovariectomized WT or LDLR-lacking female mice on Western Diet, pulsed low dose RANKL 14 days and 6 weeks post surgery
Description: With specific regards to determining an effect on atherosclerosis, ten-week old female mice that were either C57BL/6J (WT) or lacking low-density lipoprotein receptor (LDLR) were randomly assigned to chow (LabDiet 5L0B, containing 5% fat and 0.014% cholesterol, by weight) or a “Western Diet” that was high in fat and cholesterol (Teklad TD96121, containing 21% fat and 1.25% cholesterol). When the mice were 12 weeks old, all animals were surgically operated. Half the mice were ovariectomized (simulating menopause), and the other half had sham surgery. One group of ovariectomized mice on the Western Diet were treated with pulsed low dose RANKL (0.125 mg/kg) 14 days post surgery (14 weeks of age) and 6 weeks post surgery (18 weeks old). All mice were sacrificed at 20 weeks of age, and bone loss and aortic plaque development were analyzed.

[2] = system: atherosclerotic lesions in the aortic root; assay: WD-fed ovariectomized LDLR-/- and WT mice dosed with saline or IdRANKL: weight, cholesterol, atheroma, BV/TV; conditions: for atheroprotection / effects of OVX on atherogenesis / bone loss (BV/TV): LDLR-/- and WT mice; for reduction of plaque size compared to non-treated animals: WD, OVX; for body weight gain: ovariectomized WD-fed LDLR-/- and WT mice
Procedure: Ovariectomized (OVX) mice were treated with saline control or pulsed low-dose RANKL at 3 and 7 weeks post-OVX. RANKL was administered at 0.125 mg/kg twice at 0 and 24 hours for each treatment time point.
In order to define the contributions of menopause, LDL-cholesterol, and diet to postmenopausal morbidities, 10-week-old wild-type (WT) and (LDLR−/−) mice were placed on normal (ND) or western (WD) diet and we performed sham-surgery or ovariectomy two weeks after die diet switch. This regimen is intended to mimic the conditions of patients, who presumably already have fatty streaks in their vasculature by the time menopause ensues. All animals were sacrificed at 19 weeks of age, when hearts, long bones, and blood were collected.
It has been previously shown that low-dose RANKL (IdRANKL) induces TcREG in bone marrow. We postulated that induction of TcREG might be atheroprotective as it protects against osteoporosis in ovariectomized mice. To test that proposal, we first tested the ability of IdRANKL to modulate the systemic availability of proinflammatory cytokines. Thus, a new group of WT mice were fed WD, and subjected to sham or OVX surgeries, then dosed with saline or IdRANKL (two i.p. injections 3 and 7 weeks after OVX). […] We then, measured the ability of freshly isolated T-cells from peripheral blood to produce IL-17A and TNFα. […] Zoledronate is a bisphosphonate that is used clinically to prevent bone resorption (by suppressing osteoclasts). […] Without being limited to any particular theory of operation, we hypothesize that these cells contribute to postmenopausal comorbidities such as atherosclerosis and osteoporosis, and that immunosuppressing therapies such as pulsed IdRANKL will have cardio- and osteo-protective effects.
To test this hypothesis, a new group of LDLR−/− and WT mice were fed WD and ovariectomized as discussed previously, and dosed with saline or IdRANKL as above. […] The underlying mechanism for this limiting weight-gain following induction of TcREG is not known, but warrants further study. […] This beneficial effect was more pronounced in WI mice, where plaques were reduced by 80% in size, compared to non-treated animals. In LDLR−/− mice, the reduction was more modest at 35%. […] We conclude that IdRANKL likely exerts protective effects in the aorta and the bone via TcReG-mediated suppression of TEFF proinflammatory activity (e.g. production of IL-17A and TNFα).

atheroma plaque = assay: Male LDLR-/- mice on western diet, pulsed low-dose RANKL; conditions: 9 weeks
Procedure: FIGS. 22 and 23 extend the evaluation of the effect of pulse RANKL treatment to male LDLR mice. Surgery was, unnecessary in this case, so all mice were simply placed on the western diet at 10 weeks of age. Two weeks later one-half of the mice were treated with pulsed low-dose RANKL as contemplated elsewhere herein and the same group was treated again 6 weeks later. Time of treatment is indicated by the arrows in FIG. 22. […] All mice were sacrificed 9 weeks after the start of the experiment and plaque volumes were compared between the two groups.

B1: receptor activator of NF-κB ligand (protein, UniProt O35235 139-316, looked up)
Tumor necrosis factor ligand …: FSGAPAMMEGSWLDVAQRGKPEAQPFAHLTINAASIPSGSHKVTLSSWYHDRGWAKISNMTLSNGKLRVNQDGFYYLYANICFRHHETSGSVPTDYLQLMVYVVKTSIKIPSSHNLMKGGSTKNWSGNSEFHFYSINVGGFFKLRAGEEISIQVSNPSLLDPDQDATYFGAFKVQDID
modifications: GST tag
In the case of B1, the “time a single treatment is effective to limit bone loss / bone resorption” value (ovariectomized mice; listed as low dose RANKL) is reported as “approximately 28 days”, the “time a single treatment is effective to limit bone loss / bone resorption” value (ovariectomized mice; listed as low-dose RANKL) is reported as “up to 30 days” and the plaque volume ([1]; low dose RANKL treated mice) is reported as “plaque volume in low dose treated mice was also reduced”. The weight gain ([1]; low dose RANKL vs without treatment) was “less weight gain”, the inflammation ([1]; ovariectomized mice, compared to Zolendronate) was “reduced” and the “number of atherosclerotic lesions in the aortic root” value ([1]; ovariectomized, western diet) was “the number of atherosclerotic lesions in the aortic root was reduced”. For the same molecule, the osteoporosis ([1]; ovariectomized, western diet) was “ameliorate osteoporosis”, the “atheroprotection / effects of OVX on atherogenesis” value [2] was “eliminated the effects of OVX on both osteoporosis and atherogenesis” and the “total cholesterol in serum” value ([2]; LDLR-/- and WT mice (FIG. 20G)) was “does not significantly alter total cholesterol in serum”. For the same molecule, the “atheroprotection / effects of OVX on atherogenesis” value ([2]; listed as IdRANKL) was “atheroprotective”, the “bone loss (BV/TV)” value ([2]; listed as IdRANKL) was “pronounced effect on preventing osteoporosis” and the “bone loss (BV/TV)” value ([2]; listed as low-dose RANKL) was “prevents bone loss”. The serum cholesterol ([2]; LDLR-/- mice) was “slightly decreased”, the “reduction of plaque size compared to non-treated animals” value ([2]; LDLR-/- mice) was 35% and the “reduction of plaque size compared to non-treated animals” value ([2]; WT mice) was 80%. The body weight gain ([2]; listed as IdRANKL) was “ameliorated body weight gain”, the body weight gain ([2]; listed as low-dose RANKL) was “reduces body gain weight” and the plaque volumes (atheroma plaque) was “plaque volumes were reduced in the treated group”. The weight gain (atheroma plaque) was “weight gain in the treated mice was reduced”.
